Source: patent publication US20240299493A1 (ACCELERON PHARMA, published 2024)

T1: GDF11 (UniProt O95390 299-407)
T1 sequence (looked up): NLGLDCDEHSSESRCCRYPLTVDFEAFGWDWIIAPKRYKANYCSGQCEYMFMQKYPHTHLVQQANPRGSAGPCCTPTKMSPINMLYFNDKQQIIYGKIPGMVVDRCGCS

T2: activin A (UniProt P08476 311-426)
T2 construct: also called ActA
T2 sequence (looked up): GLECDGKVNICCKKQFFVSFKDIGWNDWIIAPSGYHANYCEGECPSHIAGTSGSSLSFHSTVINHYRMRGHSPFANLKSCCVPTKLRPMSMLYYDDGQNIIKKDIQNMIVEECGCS

T3: GDF8 (UniProt O14793 267-375)
T3 construct: also called myostatin
T3 sequence (looked up): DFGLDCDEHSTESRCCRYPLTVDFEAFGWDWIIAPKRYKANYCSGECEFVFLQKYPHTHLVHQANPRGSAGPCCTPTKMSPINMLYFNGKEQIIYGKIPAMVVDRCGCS

B1: ActRIIB(A24N 20-134)-hFc (Fc fusion)
chain: GRGENETRECIYYNANWELERTNQSGLERCEGEQDKRLHCYASWRNSSGTIELVKKGCWLDDFNCYDRQECVATEENPQVYFCCCEGNFCNERFTHLPEAGGPEVTYEPPPTAPTGGGTHTCPPCPAPELLGGPSVFLFPPKPKDTLMISRTPEVTCVVVDVSHEDPEVKFNWYVDGVEVHNAKTKPREEQYNSTYRVVSVLTVLHQDWLNGKEYKCKVSNKALPVPIEKTISKAKGQPREPQVYTLPPSREEMTKNQVSLTCLVKGFYPSDIAVEWESNGQPENNYKTTPPVLDSDGSFFLYSKLTVDKSRWQQGNVFSCSVMHEALHNHYTQKSLSLSPGK
modifications: A24N creates an N-linked glycosylation sequence (N-E-T), paragraph 96
notes: also called A24N variant
B2: ActRIIB(R64K 20-129)-hFc (Fc fusion)
chain: GRGEAETRECIYYNANWELERTNQSGLERCEGEQDKRLHCYASWKNSSGTIELVKKGCWLDDFNCYDRQECVATEENPQVYFCCCEGNFCNERFTHLPEAGGPEVTYEPPTGGGTHTCPPCPAPELLGGPSVFLFPPKPKDTLMISRTPEVTCVVVDVSHEDPEVKFNWYVDGVEVHNAKTKPREEQYNSTYRVVSVLTVLHQDWLNGKEYKCKVSNKALPVPIEKTISKAKGQPREPQVYTLPPSREEMTKNQVSLTCLVKGFYPSDIAVEWESNGQPENNYKTTPPVLDSDGSFFLYSKLTVDKSRWQQGNVFSCSVMHEALHNHYTQKSLSLSPGK

Assays:
GDF11 [1] = molecular target: T1, GDF11; experiment: cell-based or functional assay
activin A [2] = molecular target: T2, activin A; experiment: cell-based or functional assay
GDF11 [3] = molecular target: T1, GDF11; experiment: Biacore; Fc fusion captured by anti-hFc antibody, ligand flowed
Method: (§1) Binding of certain ActRIIB-Fc proteins and ActRIIB variant Fc fusion polypeptides to ligands was tested in a Biacore™ assay.
(§2) The ActRIIB-Fc variants or wild-type protein were captured onto the system using an anti-hFc antibody. Ligands were injected and flowed over the captured receptor proteins.

activin A [4] = molecular target: T2, activin A; experiment: as above
Method: as §1, §2

GDF8 = molecular target: T3, GDF8; experiment: as above
Method: as §1, §2

Row | Molecule | GDF11 Inhibition Activity (KI) (GDF11 [1]) [nM] | Activin Inhibition Activity (KI) (activin A [2]) [nM] | Kd (GDF11 [3]) [nM] | koff (GDF11 [3]) [s⁻¹] | Kd (activin A [4]) [nM] | koff (activin A [4]) [s⁻¹] | kon (activin A [4]) [M⁻¹ s⁻¹] | Kd (GDF8) [nM] | koff (GDF8) [s⁻¹]
1 | ActRIIB-Fc A64 20-134 (Fc fusion) | 1000 | 1000 |  |  |  |  |  |  | 
2 | B1 |  |  | 0.0519 | 6.35e-05 | 0.104 | 0.000346 | 3.34e+06 |  | 
3 | B2 |  |  |  |  | 0.0841 | 0.000628 | 7.46e+06 | 2.15 | 0.000209
